Biological target: T1, human CD40 on the cell surface (EL-4 cells transfected with full length human CD40 cDNA); Ramos B cells; human … (human, UniProt P25942 21-277)
T1 construct: whole, on cells; Ramos and peripheral B cells carry their own CD40; also called cell surface human CD40
Test: FACS on EL-4 cells expressing human CD40

T1 sequence (P25942 21-277): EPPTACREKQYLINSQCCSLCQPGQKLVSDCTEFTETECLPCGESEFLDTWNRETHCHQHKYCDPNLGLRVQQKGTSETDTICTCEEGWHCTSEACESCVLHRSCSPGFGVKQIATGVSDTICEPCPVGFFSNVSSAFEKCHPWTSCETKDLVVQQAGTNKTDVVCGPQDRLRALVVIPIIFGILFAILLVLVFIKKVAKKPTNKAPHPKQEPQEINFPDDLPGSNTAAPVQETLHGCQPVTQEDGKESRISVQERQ

binding result: binds
B1: recombinant human anti-CD40 antibody F5-77 (antibody, V domains shown)
VH: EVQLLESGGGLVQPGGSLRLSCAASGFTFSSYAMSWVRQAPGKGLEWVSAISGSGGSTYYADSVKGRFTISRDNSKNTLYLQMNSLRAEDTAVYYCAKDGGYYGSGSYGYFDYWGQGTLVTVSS
VL: DIQMTQSPSSVSGSVGDRVTITCRASQGISSWLAWYQQKPGKAPKLLIYAGSSLQSGVPSRFSGSGFGTDFTLTISSLQPEDFATYYCQQASSFPRTFGQGTKVEIK
notes: also called F5-77 (K1H1); printed F5-17 in claim 19

— patent publication US7063845 (KIRIN BEER, dated 2006)
